Test [1] has as its target T1, human Natriuretic Peptide Receptor 1 (hNPR1) (human, UniProt P16066 33-473, limits assumed).
T1 construct: pannings used NPR1-hFc; also called NPR1-hFc
T1 sequence: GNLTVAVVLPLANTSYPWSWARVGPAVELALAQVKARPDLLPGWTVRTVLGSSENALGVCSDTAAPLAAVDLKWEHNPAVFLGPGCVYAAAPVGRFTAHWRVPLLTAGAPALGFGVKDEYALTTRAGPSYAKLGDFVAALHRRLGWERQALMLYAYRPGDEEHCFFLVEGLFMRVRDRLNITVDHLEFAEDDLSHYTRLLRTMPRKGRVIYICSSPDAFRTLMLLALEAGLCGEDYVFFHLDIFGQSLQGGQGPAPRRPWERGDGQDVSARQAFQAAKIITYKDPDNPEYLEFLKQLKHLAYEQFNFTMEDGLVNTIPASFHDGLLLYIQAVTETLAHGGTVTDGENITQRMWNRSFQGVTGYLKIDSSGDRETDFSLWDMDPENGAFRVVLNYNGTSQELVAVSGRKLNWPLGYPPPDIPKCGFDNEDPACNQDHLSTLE
Kind of test: SET, FabCys.

The target in test [2] is T2, hNPR1-ANP complex (human, UniProt P01160 124-151, limits assumed).
T2 construct: hNPR1 antigen in the presence of ANP; also called hNPR1 + 100 nM ANP
T2 sequence: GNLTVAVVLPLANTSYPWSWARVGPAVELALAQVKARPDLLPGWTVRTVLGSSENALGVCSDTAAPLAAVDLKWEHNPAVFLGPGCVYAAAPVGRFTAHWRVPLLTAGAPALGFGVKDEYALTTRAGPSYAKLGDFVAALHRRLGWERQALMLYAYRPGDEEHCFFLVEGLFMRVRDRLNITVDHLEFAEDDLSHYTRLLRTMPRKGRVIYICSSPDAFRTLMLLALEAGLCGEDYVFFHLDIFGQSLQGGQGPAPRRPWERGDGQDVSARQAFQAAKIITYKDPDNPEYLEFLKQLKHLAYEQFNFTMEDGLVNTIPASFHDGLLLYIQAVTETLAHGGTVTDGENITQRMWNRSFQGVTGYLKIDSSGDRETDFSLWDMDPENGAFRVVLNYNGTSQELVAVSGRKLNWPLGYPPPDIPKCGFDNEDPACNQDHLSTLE
T2 sequence (peptide): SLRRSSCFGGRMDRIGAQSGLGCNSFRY
Kind of test: SET, FabCys.

Test [3] has as its target T3, rat NPR1 (rNPR1) (rat, UniProt P18910 29-469, limits assumed).
T3 construct: Soluble antigen
T3 sequence: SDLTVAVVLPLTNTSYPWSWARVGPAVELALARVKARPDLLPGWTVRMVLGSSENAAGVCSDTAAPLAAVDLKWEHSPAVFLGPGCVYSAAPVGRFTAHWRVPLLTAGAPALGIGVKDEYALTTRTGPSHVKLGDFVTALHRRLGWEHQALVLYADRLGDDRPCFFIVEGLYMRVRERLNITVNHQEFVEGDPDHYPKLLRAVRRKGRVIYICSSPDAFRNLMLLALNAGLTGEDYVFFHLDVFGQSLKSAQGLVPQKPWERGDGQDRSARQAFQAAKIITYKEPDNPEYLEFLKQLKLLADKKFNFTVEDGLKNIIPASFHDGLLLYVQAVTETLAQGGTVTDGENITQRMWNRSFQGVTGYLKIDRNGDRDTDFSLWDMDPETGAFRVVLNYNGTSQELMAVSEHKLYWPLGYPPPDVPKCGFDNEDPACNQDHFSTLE
Kind of test: SET, FabCys.

Test [4] concerns the target T4, rNPR1-ANP complex (rat, UniProt P01160 124-151 (human entry), limits assumed).
T4 construct: rNPR1 antigen in the presence of ANP; also called rNPR1 + 100 nM ANP
T4 sequence: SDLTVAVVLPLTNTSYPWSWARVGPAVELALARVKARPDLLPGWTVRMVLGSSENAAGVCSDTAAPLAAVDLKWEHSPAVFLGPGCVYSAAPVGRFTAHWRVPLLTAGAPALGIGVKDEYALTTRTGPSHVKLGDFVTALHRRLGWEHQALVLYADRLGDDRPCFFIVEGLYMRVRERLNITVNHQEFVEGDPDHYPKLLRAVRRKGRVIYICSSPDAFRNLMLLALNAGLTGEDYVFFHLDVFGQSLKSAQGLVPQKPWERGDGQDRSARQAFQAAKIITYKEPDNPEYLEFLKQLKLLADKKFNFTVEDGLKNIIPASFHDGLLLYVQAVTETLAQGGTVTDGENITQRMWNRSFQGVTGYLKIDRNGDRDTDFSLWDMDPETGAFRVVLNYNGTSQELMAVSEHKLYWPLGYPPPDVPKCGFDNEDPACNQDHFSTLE
T4 sequence (peptide): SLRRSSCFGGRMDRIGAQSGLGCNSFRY
The experiment in a line: SET, FabCys.

Test [5] deals with T2, hNPR1-ANP complex. The experiment in a line: Octet, FabCys. On the technique in general: BLI is a label-free optical method that tracks binding on a fibre tip over time.
The target in test [6] is T4, rNPR1-ANP complex. Kind of test: Octet, FabCys.
Test [7] addresses T2, hNPR1-ANP complex. Kind of test: FabCys affinity determination.
Test [8] addresses T3, rat NPR1 (rNPR1). The experiment in a line: FabCys affinity determination.
Test [9] has as its target T4, rNPR1-ANP complex. Kind of test: FabCys affinity determination.

B1: ZZ12 (FabCys format) (Fab, V domains shown)
VH: EVQLVESGGGLVQPGGSLRLSCAASGFSFSKYYLNWVRQAPGKGLEWVASIHQQAHEKKYVESVKGRFTISRDNAKNSLYLQMNSLRAEDTAVYYCARSLRRRSTEHAGFDVWGQGTLVTVSS
VL: DIQMTQSPSSLSASVGDRVTITCRASQGISNYLAWYQQKPGKVPKLLIYAASTLQSGVPSRFSGSGSGTDFTLTISSLQPEDVATYYCQQADKFPYTFGQGTKVEIK
notes: Monovalent FabCys
Usually Kd stands for a measure of binding affinity in units of concentration. Lower therefore signals tighter binding. For B1, the Kd stood at 6.7 nM in test [1]; 0.32 nM in [2]; 2.1 nM in [3]; 1.4 nM in [4]; 0.04 nM in test [5]; 0.1 nM in test [6].

B2: YY03 (FabCys format) (Fab, V domains shown)
VH: EVQLLESGGGLVQPGGSLRLSCAASGFTFSSYAISWVRQAPGKGLEWVSAISGSGGSTYYAESVKGRFTISRDNSKNTLYLQMNSLRAEDTAVYYCARESGYVYYLKFDYWGQGTLVTVSS
VL: DIQMTQSPSSLSASVGDRVTITCRASQSISSYLNWYQQKPGKAPKLLIYAASSLQSGVPSRFSGSGSGTDFTLTISSLQPEDFATYYCQQHVRVPITFGQGTKVEIK
notes: Monovalent FabCys
Regarding B2, the Kd in [7], in test [8] and in test [9] was 0.1 nM each time.

The values above are taken from US20240052042A1 (Novartis, published 2024).
